One block for each binder: values may come before it. Bridge positions count the residues as written; N and C are the ends. Square brackets hold non-standard residues; d marks the D form. Bip = N[C@@H](Cc1ccc(-c2ccccc2)cc1)C(=O)O; Phe(4-Cl) = N[C@@H](Cc1ccc(Cl)cc1)C(=O)O; NMeF = CN[C@@H](Cc1ccccc1)C(=O)O; NMeE = CN[C@@H](CCC(=O)O)C(=O)O; hSer = N[C@@H](CCO)C(=O)O; NMeA = CN[C@@H](C)C(=O)O
Target: T1, Human PCSK9 Alexa Fluor 647 (human, UniProt Q8NBP7 31-692, limits assumed, Alexa Fluor 647 label (site not stated))
T1 construct: Labelled tracer of the TR-FRET assay, 16 nM stock; also called proprotein convertase subtilisin/kexin type 9
T1 sequence (Q8NBP7 31-692 limits assumed): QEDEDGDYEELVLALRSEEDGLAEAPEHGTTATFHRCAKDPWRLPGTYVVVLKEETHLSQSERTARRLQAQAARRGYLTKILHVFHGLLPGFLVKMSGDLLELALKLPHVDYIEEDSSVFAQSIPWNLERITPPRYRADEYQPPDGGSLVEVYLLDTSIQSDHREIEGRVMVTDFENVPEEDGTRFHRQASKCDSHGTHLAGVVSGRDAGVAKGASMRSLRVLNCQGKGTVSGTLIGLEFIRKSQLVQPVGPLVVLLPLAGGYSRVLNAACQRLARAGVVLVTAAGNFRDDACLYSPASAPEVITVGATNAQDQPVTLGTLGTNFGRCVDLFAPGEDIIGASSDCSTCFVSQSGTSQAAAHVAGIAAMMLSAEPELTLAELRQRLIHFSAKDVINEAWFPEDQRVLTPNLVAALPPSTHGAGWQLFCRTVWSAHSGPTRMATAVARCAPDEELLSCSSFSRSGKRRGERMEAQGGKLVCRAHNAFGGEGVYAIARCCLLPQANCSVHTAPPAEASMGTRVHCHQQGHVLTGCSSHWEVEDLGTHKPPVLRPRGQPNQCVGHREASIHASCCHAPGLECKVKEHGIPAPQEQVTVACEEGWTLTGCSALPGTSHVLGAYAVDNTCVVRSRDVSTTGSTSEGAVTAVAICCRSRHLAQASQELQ
Test: TR-FRET competition: PCSK9-Alexa Fluor 647 vs LDLR ECD-Eu kryptate
Method: A Proxi plate-low volume assay plate was used for the assay. […] Following a 30 minute incubation, 5 uL of 4 nM Human LDLR extracellular domain-Europium Kryptate was added and the mixture was incubated for an additional 2 hours.
The TR-FRET signal was measured on an EnVision or PheraStar instrument with a 60 μs delay, 330 nm excitation and 665 nm emission (FRET), and 330 nm excitation and 615 nm (Europium). The FRET ratio (FRET/Europium) was used for calculations.

IC50: 410 nM
Maximum % inhibition: 55%
B1: Ac*-F-E-N-T-T-F-(N-Me)A-B-(N-Me)A-A-S-P-C*-G-NH2 (peptide)
peptide: {CH2CO}-FENTTF[NMeA][Bip][NMeA]ASPCG-NH2
modifications: thioether N-13
SMILES: C[C@@H]1NC(=O)[C@H](C)N(C)C(=O)[C@H](Cc2ccc(-c3ccccc3)cc2)NC(=O)[C@H](C)N(C)C(=O)[C@H](Cc2ccccc2)NC(=O)[C@H]([C@@H](C)O)NC(=O)[C@H]([C@@H](C)O)NC(=O)[C@H](CC(N)=O)NC(=O)[C@H](CCC(=O)O)NC(=O)[C@H](Cc2ccccc2)NC(=O)CSC[C@@H](C(=O)NCC(N)=O)NC(=O)[C@@H]2CCCN2C(=O)[C@H](CO)NC1=O
notes: also called 1-27; Ex. No. 1-27

IC50: 0.04 nM
Maximum % inhibition: 75%
B2: Ac*-F-V-HomoSer-T-T-F-(N-Me)A-(p-Cl)F-(N-Me)A-D-A-P-C*-NH2 (peptide)
peptide: {CH2CO}-FV[hSer]TTF[NMeA][Phe(4-Cl)][NMeA]DAPC-NH2
modifications: thioether N-13
SMILES: CC(C)[C@@H]1NC(=O)[C@H](Cc2ccccc2)NC(=O)CSC[C@@H](C(N)=O)NC(=O)[C@@H]2CCCN2C(=O)[C@H](C)NC(=O)[C@H](CC(=O)O)NC(=O)[C@H](C)N(C)C(=O)[C@H](Cc2ccc(Cl)cc2)NC(=O)[C@H](C)N(C)C(=O)[C@H](Cc2ccccc2)NC(=O)[C@H]([C@@H](C)O)NC(=O)[C@H]([C@@H](C)O)NC(=O)[C@H](CCO)NC1=O
notes: also called 2-3; Ex. No. 2-3

IC50: 1.1 nM
Maximum % inhibition: 46%
B5: Ac*-F-V-A-T-T-F-(N-Me)A-(p-Cl)F-(N-Me)A-N-A-P-C*-NH2 (peptide)
peptide: {CH2CO}-FVATTF[NMeA][Phe(4-Cl)][NMeA]NAPC-NH2
modifications: thioether N-13
SMILES: CC(C)[C@@H]1NC(=O)[C@H](Cc2ccccc2)NC(=O)CSC[C@@H](C(N)=O)NC(=O)[C@@H]2CCCN2C(=O)[C@H](C)NC(=O)[C@H](CC(N)=O)NC(=O)[C@H](C)N(C)C(=O)[C@H](Cc2ccc(Cl)cc2)NC(=O)[C@H](C)N(C)C(=O)[C@H](Cc2ccccc2)NC(=O)[C@H]([C@@H](C)O)NC(=O)[C@H]([C@@H](C)O)NC(=O)[C@H](C)NC1=O
notes: also called 2-5; Ex. No. 2-5

IC50: 6.8 nM
Maximum % inhibition: 70%
B6: Ac*-F-V-S-T-T-F-(N-Me)A-B-(N-Me)A-E-A-P-C*-G-NH2 (peptide)
peptide: FVSTTFAXAEAPCG
modifications: not fully specified; N-terminal acetyl (Ac*) joined by a sulfide bond to the side chain of Cys13 (cyclic); 7: L-(N-Me)Ala; 8: L-Bip; 9: L-(N-Me)Ala; C-terminal amide (NH2)
notes: also called 1-24; Ex. No. 1-24

IC50: 17 nM
Maximum % inhibition: 91%
B7: Ac*-F-V-D-T-T-F-(N-Me)A-B-(N-Me)A-E-S-P-C*-G-NH2 (peptide)
peptide: {CH2CO}-FVDTTF[NMeA][Bip][NMeA]ESPCG-NH2
modifications: thioether N-13
SMILES: CC(C)[C@@H]1NC(=O)[C@H](Cc2ccccc2)NC(=O)CSC[C@@H](C(=O)NCC(N)=O)NC(=O)[C@@H]2CCCN2C(=O)[C@H](CO)NC(=O)[C@H](CCC(=O)O)NC(=O)[C@H](C)N(C)C(=O)[C@H](Cc2ccc(-c3ccccc3)cc2)NC(=O)[C@H](C)N(C)C(=O)[C@H](Cc2ccccc2)NC(=O)[C@H]([C@@H](C)O)NC(=O)[C@H]([C@@H](C)O)NC(=O)[C@H](CC(=O)O)NC1=O
notes: also called 1-17; Ex. No. 1-17

IC50: 2.2 nM
Binder: {CH2CO}-FVPTT[Bip][NMeA][Bip][NMeA]EAPC-NHEt (thioether N-13, also called 3-3; Ex. No. 3-3) [Ac*-F-V-P-T-T-B-(N-Me)A-B-(N-Me)A-E-A-P-C*-NHEt]

IC50: 22 nM
Maximum % inhibition: 36%
B9: Ac*-F-V-N-T-T-F-(N-Me)A-B-(N-Me)A-K-A-P-C*-G-NH2 (peptide)
peptide: {CH2CO}-FVNTTF[NMeA][Bip][NMeA]KAPCG-NH2
modifications: thioether N-13
SMILES: CC(C)[C@@H]1NC(=O)[C@H](Cc2ccccc2)NC(=O)CSC[C@@H](C(=O)NCC(N)=O)NC(=O)[C@@H]2CCCN2C(=O)[C@H](C)NC(=O)[C@H](CCCCN)NC(=O)[C@H](C)N(C)C(=O)[C@H](Cc2ccc(-c3ccccc3)cc2)NC(=O)[C@H](C)N(C)C(=O)[C@H](Cc2ccccc2)NC(=O)[C@H]([C@@H](C)O)NC(=O)[C@H]([C@@H](C)O)NC(=O)[C@H](CC(N)=O)NC1=O
notes: also called 1-23; Ex. No. 1-23

IC50: 7.2 nM
Maximum % inhibition: 81%
B11: Ac*-F-V-P-T-T-A-(N-Me)F-B-(N-Me)A-E-A-P-C*-G-NH2 (peptide)
peptide: {CH2CO}-FVPTTA[NMeF][Bip][NMeA]EAPCG-NH2
modifications: thioether N-13; not fully specified
notes: The three-letter form of the same entry prints L-Arg at position 11 where the one-letter form prints A; also called 1-21; Ex. No. 1-21

IC50: 5.4 nM
Maximum % inhibition: 83%
B13: Ac*-F-V-P-T-T-V-(N-Me)A-(p-Cl)F-(N-Me)A-E-A-P-C*-NH2 (peptide)
peptide: {CH2CO}-FVPTTV[NMeA][Phe(4-Cl)][NMeA]EAPC-NH2
modifications: thioether N-13
SMILES: CC(C)[C@@H]1NC(=O)[C@H]([C@@H](C)O)NC(=O)[C@H]([C@@H](C)O)NC(=O)[C@@H]2CCCN2C(=O)[C@H](C(C)C)NC(=O)[C@H](Cc2ccccc2)NC(=O)CSC[C@@H](C(N)=O)NC(=O)[C@@H]2CCCN2C(=O)[C@H](C)NC(=O)[C@H](CCC(=O)O)NC(=O)[C@H](C)N(C)C(=O)[C@H](Cc2ccc(Cl)cc2)NC(=O)[C@H](C)N(C)C1=O
notes: also called 2-6; Ex. No. 2-6

IC50: 85 nM
Maximum % inhibition: 61%
B14: Ac*-F-V-N-T-T-F-(N-Me)A-B-(N-Me)A-(N-Me)E-A-P-C*-NHEt (peptide)
peptide: {CH2CO}-FVNTTF[NMeA][Bip][NMeA][NMeE]APC-NHEt
modifications: thioether N-13
SMILES: CCNC(=O)[C@@H]1CSCC(=O)N[C@@H](Cc2ccccc2)C(=O)N[C@@H](C(C)C)C(=O)N[C@@H](CC(N)=O)C(=O)N[C@@H]([C@@H](C)O)C(=O)N[C@@H]([C@@H](C)O)C(=O)N[C@@H](Cc2ccccc2)C(=O)N(C)[C@@H](C)C(=O)N[C@@H](Cc2ccc(-c3ccccc3)cc2)C(=O)N(C)[C@@H](C)C(=O)N(C)[C@@H](CCC(=O)O)C(=O)N[C@@H](C)C(=O)N2CCC[C@H]2C(=O)N1
notes: also called 3-1; Ex. No. 3-1

The next lines start with the binder.

B3: Ac*-F-V-S-T-T-B-(N-Me)A-B-(N-Me)A-D-R-P-C*-NH2 (peptide)
peptide: {CH2CO}-FVSTT[Bip][NMeA][Bip][NMeA]DRPC-NH2
modifications: thioether N-13
SMILES: CC(C)[C@@H]1NC(=O)[C@H](Cc2ccccc2)NC(=O)CSC[C@@H](C(N)=O)NC(=O)[C@@H]2CCCN2C(=O)[C@H](CCCNC(=N)N)NC(=O)[C@H](CC(=O)O)NC(=O)[C@H](C)N(C)C(=O)[C@H](Cc2ccc(-c3ccccc3)cc2)NC(=O)[C@H](C)N(C)C(=O)[C@H](Cc2ccc(-c3ccccc3)cc2)NC(=O)[C@H]([C@@H](C)O)NC(=O)[C@H]([C@@H](C)O)NC(=O)[C@H](CO)NC1=O
notes: also called 2-4; Ex. No. 2-4
IC50: 1.8 nM
Maximum % inhibition: 28%

B4: Ac*-F-V-N-T-T-A-(N-Me)F-B-(N-Me)A-Q-A-P-C*-G-NH2 (peptide)
peptide: {CH2CO}-FVNTTA[NMeF][Bip][NMeA]QAPCG-NH2
modifications: thioether N-13
SMILES: CC(C)[C@@H]1NC(=O)[C@H](Cc2ccccc2)NC(=O)CSC[C@@H](C(=O)NCC(N)=O)NC(=O)[C@@H]2CCCN2C(=O)[C@H](C)NC(=O)[C@H](CCC(N)=O)NC(=O)[C@H](C)N(C)C(=O)[C@H](Cc2ccc(-c3ccccc3)cc2)NC(=O)[C@H](Cc2ccccc2)N(C)C(=O)[C@H](C)NC(=O)[C@H]([C@@H](C)O)NC(=O)[C@H]([C@@H](C)O)NC(=O)[C@H](CC(N)=O)NC1=O
notes: also called 1-18; Ex. No. 1-18
IC50: 11 nM
Maximum % inhibition: 53%

B8: Ac*-F-V-A-T-T-F-(N-Me)A-B-(N-Me)A-K-A-P-C*-G-NH2 (peptide)
peptide: {CH2CO}-FVATTF[NMeA][Bip][NMeA]KAPCG-NH2
modifications: thioether N-13
SMILES: CC(C)[C@@H]1NC(=O)[C@H](Cc2ccccc2)NC(=O)CSC[C@@H](C(=O)NCC(N)=O)NC(=O)[C@@H]2CCCN2C(=O)[C@H](C)NC(=O)[C@H](CCCCN)NC(=O)[C@H](C)N(C)C(=O)[C@H](Cc2ccc(-c3ccccc3)cc2)NC(=O)[C@H](C)N(C)C(=O)[C@H](Cc2ccccc2)NC(=O)[C@H]([C@@H](C)O)NC(=O)[C@H]([C@@H](C)O)NC(=O)[C@H](C)NC1=O
notes: also called 1-22; Ex. No. 1-22
IC50: 12 nM
Maximum % inhibition: 49%

B10: Ac*-F-V-D-T-T-A-(N-Me)F-B-(N-Me)A-E-A-P-C*-G-NH2 (peptide)
peptide: {CH2CO}-FVDTTA[NMeF][Bip][NMeA]EAPCG-NH2
modifications: thioether N-13
SMILES: CC(C)[C@@H]1NC(=O)[C@H](Cc2ccccc2)NC(=O)CSC[C@@H](C(=O)NCC(N)=O)NC(=O)[C@@H]2CCCN2C(=O)[C@H](C)NC(=O)[C@H](CCC(=O)O)NC(=O)[C@H](C)N(C)C(=O)[C@H](Cc2ccc(-c3ccccc3)cc2)NC(=O)[C@H](Cc2ccccc2)N(C)C(=O)[C@H](C)NC(=O)[C@H]([C@@H](C)O)NC(=O)[C@H]([C@@H](C)O)NC(=O)[C@H](CC(=O)O)NC1=O
notes: also called 1-16; Ex. No. 1-16
IC50: 7.4 nM
Maximum % inhibition: 91%

B12: Ac*-F-V-P-T-T-F-(N-Me)A-B-(N-Me)A-E-A-P-C*-NHEt (peptide)
peptide: {CH2CO}-FVPTTF[NMeA][Bip][NMeA]EAPC-NHEt
modifications: thioether N-13
SMILES: CCNC(=O)[C@@H]1CSCC(=O)N[C@@H](Cc2ccccc2)C(=O)N[C@@H](C(C)C)C(=O)N2CCC[C@H]2C(=O)N[C@@H]([C@@H](C)O)C(=O)N[C@@H]([C@@H](C)O)C(=O)N[C@@H](Cc2ccccc2)C(=O)N(C)[C@@H](C)C(=O)N[C@@H](Cc2ccc(-c3ccccc3)cc2)C(=O)N(C)[C@@H](C)C(=O)N[C@@H](CCC(=O)O)C(=O)N[C@@H](C)C(=O)N2CCC[C@H]2C(=O)N1
notes: also called 3-2; Ex. No. 3-2
IC50: 4.2 nM
Maximum % inhibition: 83%

B15: Ac*-F-V-P-T-T-F-(N-Me)A-(p-Cl)F-(N-Me)A-D-A-P-C*-NH2 (peptide)
peptide: {CH2CO}-FVPTTF[NMeA][Phe(4-Cl)][NMeA]DAPC-NH2
modifications: thioether N-13
SMILES: CC(C)[C@@H]1NC(=O)[C@H](Cc2ccccc2)NC(=O)CSC[C@@H](C(N)=O)NC(=O)[C@@H]2CCCN2C(=O)[C@H](C)NC(=O)[C@H](CC(=O)O)NC(=O)[C@H](C)N(C)C(=O)[C@H](Cc2ccc(Cl)cc2)NC(=O)[C@H](C)N(C)C(=O)[C@H](Cc2ccccc2)NC(=O)[C@H]([C@@H](C)O)NC(=O)[C@H]([C@@H](C)O)NC(=O)[C@@H]2CCCN2C1=O
notes: also called 2-2; Ex. No. 2-2
IC50: 0.4 nM
Maximum % inhibition: 72%

B16: Ac*-F-V-P-T-T-F-(N-Me)A-(p-Cl)F-(N-Me)A-P-A-P-C*-NH2 (peptide)
peptide: {CH2CO}-FVPTTF[NMeA][Phe(4-Cl)][NMeA]PAPC-NH2
modifications: thioether N-13
SMILES: CC(C)[C@@H]1NC(=O)[C@H](Cc2ccccc2)NC(=O)CSC[C@@H](C(N)=O)NC(=O)[C@@H]2CCCN2C(=O)[C@H](C)NC(=O)[C@@H]2CCCN2C(=O)[C@H](C)N(C)C(=O)[C@H](Cc2ccc(Cl)cc2)NC(=O)[C@H](C)N(C)C(=O)[C@H](Cc2ccccc2)NC(=O)[C@H]([C@@H](C)O)NC(=O)[C@H]([C@@H](C)O)NC(=O)[C@@H]2CCCN2C1=O
notes: also called 2-1; Ex. No. 2-1
IC50: 11.5 nM
Maximum % inhibition: 50%

From patent US20220024981A1 (Novartis, published 2022)
